Results: patent US20180155451A1 (published 2018)
Numbering of substitutions follows the chain as printed.

B1: GpH7-G1d/GpL16-k0 (antibody, human IgG1, kappa)
heavy: not shown
light: DIVMTQSPLSLPVTPGEPASISCQASESLVHSNRNTYLHWYLQKPGQSPQLLIYKVSNRFSGVPDRFSGSGSGTDFTLKISRVEAEDVGVYYCSQNTHVPPTFGQGTKVEIERTVAAPSVFIFPPSDEQLKSGTASVVCLLNNFYPREAKVQWKVDNALQSGNSQESVTEQDSKDSTYSLSSTLTLSKADYEKHKVYACEVTHQGLSSPVTKSFNRGEC
notes: Anti-glypican-3 native-type human IgG1 control; also called native IgG1
B2: H240-FA020/H240-FB082/L73-k0 (antibody, human IgG1, kappa)
heavy 1: QDQLVQSGAEVKKPGASVKVSCKASGFNIKDTYIQWVRQAPGQGLEWMGRIDPLRKQTKYREKFEGRVTITADTSTNTAYMELSSLRSEDTAVYYCVRSGREFDYWGQGTLVTVSSASTKGPSVFPLAPSSKSTSGGTAALGCLVKDYFPEPVTVSWNSGALTSGVHTFPAVLQSSGLYSLSSVVTVPSSSLGTKTYTCNVNHKPSNTKVDKKVEPKSCDKTHTCPPCPAPEYYWGPSVFLFPPKPKDTLMISRTPEVTCVVVDVSDEEPEVKFNWYVDGVEVHNAKTKPREEQYNATYRVVSVLTVLHQDWLNGKEYKCKVSNKALPAPIEKTISKAKGQPREPQVYTLPPSRKEKTKNQVSLTCLVKGFYPSDIAVEWESNGQPENNYKTTPPVLDSDGSFFLYSKLTVDKSRWQQGNVFSCSVMHEALHNRYTQKSLSLSP
heavy 2: QDQLVQSGAEVKKPGASVKVSCKASGFNIKDTYIQWVRQAPGQGLEWMGRIDPLRKQTKYREKFEGRVTITADTSTNTAYMELSSLRSEDTAVYYCVRSGREFDYWGQGTLVTVSSASTKGPSVFPLAPSSKSTSGETAALGCLVEDYFPEPVTVSWNSGALTSGVHTFPAVLQSSGLYSLSSVVTVPSSSLGTQTYICNVNHKPSNTKVDKKVEPKSCDKTHTCPPCPAPELLGGPSVFLFPPKPKDTLMISRTPEVTCVVVDVSHEEPEVQFNWYVDGVEVHNAETKPREEQYNSTYRVVSVLTVLHQDWLNGKEYKCKVSNDALPMPIEETISKAKGQPREPQVYTLPPSREEMTKNQVSLTCLVKGFYPSDIAVEWESEGQPENNYKTTPPVLDSDGSFFLYSKLTVDKSRWQQGNVFSCSVMHEALHNHYTQESLSLSP
light: DIQMTQSPSSLSASVGDRVTITCRASQDIHKYIAWYQQKPGQAPRLLIQYTSTLQPGVPSRFSGSGSGTDYTFTISSLQPEDIATYYCLQYEQLRTFGGGTKVEIKRTVAAPSVFIFPPSDEQLKSGTASVVCLLNNFYPREAKVQWKVDNALQSGNSQESVTEQDSKDSTYSLSSTLTLSKADYEKHKVYACEVTHQGLSSPVTKSFNRGEC
notes: Heterodimerized anti-epiregulin IgG1 antibody
B3: H240-FA020/H240-FB084/L73-k0 (antibody, human IgG1, kappa)
heavy 1: B2 heavy 1
heavy 2: B2 heavy 2 with G136E, E137S, S191N, L192F, I198T, N202D, K213T
light: B2 light
notes: as for B2
B4: H240-FA021/H240-FB082/L73-k0 (antibody, human IgG1, kappa)
heavy 1: B2 heavy 1 with V396K
heavy 2: B2 heavy 2
light: B2 light
notes: as for B2
B5: H240-FA020/H240-FB083/L73-k0 (antibody, human IgG1, kappa)
heavy 1: B2 heavy 1
heavy 2: B2 heavy 2 with G136E, E137S, S191N, L192F, I198T, N202D, K213T, E383N
light: B2 light
notes: as for B2
B6: H240-FA021/H240-FB084/L73-k0 (antibody, human IgG1, kappa)
heavy 1: B2 heavy 1 with V396K
heavy 2: B2 heavy 2 with G136E, E137S, S191N, L192F, I198T, N202D, K213T
light: B2 light
notes: Heterodimerized anti-epiregulin IgG1 antibody; also called H240-FA021/H240-BF084/L73-k0
B7: H240-FA021/H240-FB083/L73-k0 (antibody, human IgG1, kappa)
heavy 1: B2 heavy 1 with V396K
heavy 2: B2 heavy 2 with G136E, E137S, S191N, L192F, I198T, N202D, K213T, E383N
light: B2 light
notes: as for B2
B8: GpH7-A5/GpH7-B3/GpL16-k0 (antibody, human IgG1, kappa)
heavy 1: not shown
heavy 2: not shown
light: B1 light
notes: also called A5/B3; HeCon Ab
B9: GpH7-G1d/GpL16-k0 (antibody, human IgG1, kappa)
heavy: not shown
light: B1 light
notes: Anti-glypican-3 IgG1 lacking the C-terminal Gly and Lys; also called native IgG1

Biological target: T1, FcγRIIIa extracellular domain with C-terminal His tag (human, UniProt P08637 17-208)
T1 construct: extracellular domain; also called FcgRIIIa; CD16A
T1 sequence (P08637 17-208): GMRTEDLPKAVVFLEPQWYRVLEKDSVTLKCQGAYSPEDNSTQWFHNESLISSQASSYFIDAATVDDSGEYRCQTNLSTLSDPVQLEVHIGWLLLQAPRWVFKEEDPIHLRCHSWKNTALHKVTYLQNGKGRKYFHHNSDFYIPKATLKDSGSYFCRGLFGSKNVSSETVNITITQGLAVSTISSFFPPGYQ
Assay: SPR (Biacore), antibody captured, FcγRIIIa as analyte, 1:1 Langmuir kinetic fit
Description: The prepared antibodies were compared for the FcγRIIIa-binding activity using, as an indicator, KD for FcγRIIIa that was determined according to the method described in Reference Example 2.
(§1) Analysis of interaction between objective antibody and the FcγR was carried out using Biacore T100 (GE Healthcare). HBS-EP+ (GE Healthcare) was used as the running buffer, and the measurement temperature was set to 25° C. Chips produced by immobilizing the antigen peptide by the amine coupling method to a Series S Sencor Chip CM5 (GE Healthcare), or alternatively, chips produced by allowing preliminarily biotinylated antigen peptides to interact with and immobilize onto a Series S Sensor Chip SA (certified) (GE Healthcare) were used. Antibodies of interest were captured onto an antigen peptide-immobilized chip, and allowed to interact to each FcγR diluted with running buffer. To regenerate and repeatedly use the chip, the antibodies captured on the chip were washed off by reacting 10 mM glycine-HCl, pH 1.5.
(§2) The FcγR-binding activity of each antibody was assessed primarily using as an indicator the FcγR-binding activity and dissociation constant for FcγR.

Kd | Binder
1200 nM | B1

Biological target: T2, FcgRIIa R type extracellular domain, C-terminal His tag (human, UniProt P12318 34-217)
T2 construct: extracellular domain; also called FcγRIIa R; 2aR; not shown: His tag attached to the C terminus
T2 sequence (looked up): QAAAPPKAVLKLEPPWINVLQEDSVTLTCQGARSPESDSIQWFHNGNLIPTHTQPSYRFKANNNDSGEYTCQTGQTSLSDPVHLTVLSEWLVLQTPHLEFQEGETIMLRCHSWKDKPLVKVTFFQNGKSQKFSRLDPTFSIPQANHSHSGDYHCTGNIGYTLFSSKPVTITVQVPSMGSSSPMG
Assay: SPR (Biacore), antibody captured on chip, FcgR extracellular domain as analyte, 25 C, 1:1 Langmuir fit; experiment #3
Description: (§3) Antibodies of interest were analyzed for the interaction to FcgR according to the method described in Reference Example 8.
(§4) Analysis of interaction between obj ective antibody and the FcγR was carried out using Biacore T100 (GE Healthcare), Biacore T200, Biacore A100, and Biacore 4000. HBS-EP+ (GE Healthcare) was used as the running buffer, and the measurement temperature was set to 25° C. Chips produced by immobilizing the antigen peptide by the amine coupling method to a Series S sensor Chip CM5 (GE Healthcare), chips produced by allowing preliminarily biotinylated antigen peptides to interact with and immobilize onto a Series S Sensor Chip SA (certified) (GE Healthcare), chips produced by immobilizing Protein L (ACTIGEN, BioVision) to Series S Sencor Chip CM5 (GE Healthcare), or chips produced by immobilizing Protein A/G (Thermo Scientific) to Series S Sencor Chip CM5 (GE Healthcare) were used. Antibodies of interest were captured onto these chips, and allowed to interact to each FcγR diluted with running buffer. To regenerate and repeatedly use the chip, the antibodies captured onto the chip were washed off by reacting 10 mM glycine-HCl, pH 1.5.

Kd | Binder
270 nM | B2
220 nM | B3
230 nM | B4
230 nM | B5
230 nM | B6
240 nM | B7

Biological target: T3, FcgRIIa H type extracellular domain, C-terminal His tag (human, UniProt P12318 34-217)
T3 construct: extracellular domain; also called FcγRIIa H; 2aH; not shown: His tag attached to the C terminus
T3 sequence (looked up): T2 sequence (looked up) with R134H
Assay: as above
Description: as §3, §4

Kd | Binder
69 nM | B2
57 nM | B3
77 nM | B4
65 nM | B5
69 nM | B6
69 nM | B7

Biological target: T4, FcgRIIIa V type extracellular domain, C-terminal His tag (human, UniProt P08637 17-208)
T4 construct: extracellular domain; also called FcγRIIIa V; 3aV; not shown: His tag attached to the C terminus
T4 sequence (P08637 17-208 F176V limits assumed): as the sequence (P08637 17-208) above, with F160V counted along it
Assay: as above
Description: as §3, §4

Kd | Binder
1.1 nM | B2
1 nM | B3
1.5 nM | B4
1.1 nM | B5
1.3 nM | B6
1.4 nM | B7

Biological target: T5, FcgRI extracellular domain, C-terminal His tag (human, UniProt P12314 16-292)
T5 construct: extracellular domain; also called FcγRIa; FcgRIa; not shown: His tag attached to the C terminus
T5 sequence (P12314 16-292): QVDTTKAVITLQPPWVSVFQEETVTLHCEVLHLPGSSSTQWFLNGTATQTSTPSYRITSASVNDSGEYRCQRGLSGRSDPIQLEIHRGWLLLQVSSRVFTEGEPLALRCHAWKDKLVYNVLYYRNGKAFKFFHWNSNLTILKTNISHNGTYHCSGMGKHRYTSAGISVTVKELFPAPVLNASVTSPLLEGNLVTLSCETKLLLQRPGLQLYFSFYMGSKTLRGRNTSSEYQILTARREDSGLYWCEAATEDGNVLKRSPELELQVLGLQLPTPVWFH
Assay: as above
Description: as §3, §4

Kd | Binder
0.079 nM | B2
0.068 nM | B3
0.06 nM | B4
0.12 nM | B5
0.033 nM | B6
0.078 nM | B7

Biological target: T6, FcgRIIb extracellular domain, C-terminal His tag (human, UniProt P31994 43-217)
T6 construct: extracellular domain; also called FcγRIIb; 2b; not shown: His tag attached to the C terminus
T6 sequence (looked up): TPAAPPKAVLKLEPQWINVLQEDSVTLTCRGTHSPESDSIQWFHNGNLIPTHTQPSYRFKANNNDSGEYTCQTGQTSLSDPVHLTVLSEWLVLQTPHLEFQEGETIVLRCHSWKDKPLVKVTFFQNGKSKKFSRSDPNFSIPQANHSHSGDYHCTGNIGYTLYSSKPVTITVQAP
Assay: as above
Description: as §3, §4

Kd | Binder
1200 nM | B2
1400 nM | B3
1600 nM | B4
1000 nM | B5
1300 nM | B6
1300 nM | B7

Biological target: T7, FcgRIIIa F type extracellular domain, C-terminal His tag (human, UniProt P08637 17-208)
T7 construct: extracellular domain; also called FcγRIIIa F; 3aF; not shown: His tag attached to the C terminus
T7 sequence (P08637 17-208): as the sequence (P08637 17-208) above
Assay: as above
Description: as §3, §4

Kd | Binder
3.4 nM | B2
3.5 nM | B3
4.2 nM | B4
3.4 nM | B5
3.3 nM | B6
3.9 nM | B7

Biological target: T1, FcγRIIIa extracellular domain with …
Assay: SPR (Biacore), ratio of KD values for FcγRIIIa
Text: GpH7-A57 (SEQ ID NO: 40) resulting from the introduction of all of S239D, A330L, and I332E into GpH7-A5; GpH7-B78 (SEQ ID NO: 41) resulting from the introduction of all of S239D, A330L, and I332E into GpH7-B3; GpH7-TA7 (SEQ ID NO: 31) resulting from the introduction of all of L234Y, G236W, and S298A into GpH7-A5; and GpH7-TA45 (SEQ ID NO: 32) resulting from the introduction of all of L234Y, G236W, and S298A into GpH7-B3. […] The prepared antibodies were compared for the FcγRIIIa-binding activity using, as an indicator, KD for FcγRIIIa that was determined according to the method described in Reference Example 2.
as §1

KD ratio 1 (KD of GpH7-G1d/GpL16-k0 divided by KD of the antibody) | Binder
1 fold | B1

Biological target: T8, FcgRIIIa F extracellular domain with C-terminal His tag (human, UniProt P08637 17-208)
T8 construct: extracellular domain; also called FcγRIIIa F; FcγRIIIa (F158); not shown: His tag attached to the C terminus
T8 sequence (P08637 17-208): as above
Assay: SPR (Biacore T100), antibody captured on antigen peptide chip, FcγR extracellular domain as analyte, kinetic analysis
Description: (§5) The prepared antibodies were assayed as to the KDs for FcγRIIIa and FcγRIIb according to the method described in Reference Example 2.
as §1, §2

Kd | Binder
1600 nM | B8
1200 nM | B9

Biological target: T9, FcgRIIb extracellular domain with C-terminal His tag (human, UniProt P31994 43-217)
T9 construct: extracellular domain; also called FcγRIIb; not shown: His tag attached to the C terminus
T9 sequence (looked up): T6 sequence (looked up)
Assay: as above
Description: as §5, §1, §2

Kd | Binder
3100 nM | B8
3100 nM | B9

Biological target: T8, FcgRIIIa F extracellular domain with …
Assay: ratio of SPR (Biacore) KDs, FcγRIIb as reference
Description: as §5, §1, §2

FcγRIIIa F/FcγRIIb ratio (KD for FcγRIIb / KD for FcγRIIIa F) | Binder
1.9 | B8
2.5 | B9
